Assay results as given in US20230027592A1.

Molecular target: Bovine serum albumin (bovine) (UniProt P02769)

Row | Substance | BSA sequence coverage after digestion (nLC-MS/MS) (% BSA sequence coverage)
1 | GluC protease (Mass Spectrometry Grade, Promega V1651) (from UniProt P0C1U8) (enzyme) | 93.1
2 | Trypsin/LysC protease mix (Mass Spectrometry Grade, Promega V5072) (pool or library) | 91.3
